Results from US20210139932A1.

Tests used:
[1] = target: human L-selectin (human) (UniProt P14151); experiment: cell-based or functional assay
[2] = target: CD34 (human) (UniProt P28906); experiment: cell-based or functional assay
UniProt P28906, sequence (P28906 32-385): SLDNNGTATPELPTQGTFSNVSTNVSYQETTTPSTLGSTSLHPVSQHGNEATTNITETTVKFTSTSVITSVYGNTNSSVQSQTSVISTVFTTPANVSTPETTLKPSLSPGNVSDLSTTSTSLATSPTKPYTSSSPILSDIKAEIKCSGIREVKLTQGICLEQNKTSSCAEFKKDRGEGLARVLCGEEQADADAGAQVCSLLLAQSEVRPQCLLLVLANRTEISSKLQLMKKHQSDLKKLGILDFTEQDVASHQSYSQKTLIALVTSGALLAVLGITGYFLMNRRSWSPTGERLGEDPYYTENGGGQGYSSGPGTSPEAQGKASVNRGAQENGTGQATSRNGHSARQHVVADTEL

| Substance | reduction of the L-selectin enhanced amount of CD34+ transduction [1] [%] | transduction of cytokine-stimulated CD34+ cells (% eGFP+ cells) [2] [fold] |
| --- | --- | --- |
| anti-human L-selectin antibody (clone DREG56; Thermo Fisher) | 79 | – |
| human L-selectin (from UniProt P14151 39-372) (ligand) | – | 2 |
